Test results: article doi:10.1101/2023.02.26.530074, “Atomic resolution structure of a DNA-binding histone protein from the bacterium Bdellovibrio bacteriovorus” (bioRxiv, 2023)

Molecular target: the molecule itself
Test: SEC-MALS; HBb at 3 mg/mL, Superdex 75 Increase 10/300 GL, 20 mM Tris pH 8.0, 150 mM NaCl, 1 M urea, 0.5 mL/min

B1: histone protein HBb from Bdellovibrio bacteriovorus (natural protein)
chain: MAEVLVVTSKVKKLIKEKGQMNTSAETIDVLSKAIEQLCLKGVESAKADGRKTVMARDIVIDHL
notes: HBb, histone homolog of Bdellovibrio bacteriovorus HD100, UniProt Q6MRM1; 64 amino acid residues, single histone fold domain; the gene encoding HBb was codon-optimized, synthesized and cloned into pETHis1a; In the crystal the first three and last three amino acids are not resolved; also called bacterial histone HBb; Bd0055; source: E. coli Mutant56(DE3), purified (HisTrap, TEV cleavage, second …)
With B1 the “stoichiometry N” value was 2.
